The supplement of paper PMC7877785
± gives the uncertainty stated by the source.

Experiment: self-splicing fitness, log relative to wild type (ln ratio); higher = more splicing; Tetrahymena group I intron in knt gene, E. coli kanamycin selection, DiMSum; sequences stand for … in CUCUCU…GGAGGGAAAAGUUAUCAGGCAUGCACCUGGUAGCUAGUCUUUAAACCAAUAGAUUGCAUCGGUUUAAAAGGCAAGACCGUCAAAUUGCGGGAAAGGGGUCAACAGCCGUUCAGUACCAAGUCUCAGGGGAAACUUUGAGAUGGCCUUGCAAAGGGUAUGGUAAUAAGCUGACGGACAUGGUCCUAACCACGCAGCCAAGUCCUAAGUCAACAGAUCUUCUGUUGAUAUGGAUGCAGUUCACAGACUAAAUGUCGGUCGGGGAAGAUGUAUUCUUCUCAUAAGAUAUAGUCGGACCUCUCCUUAAUGGGAGCUAGCGGAUGAAGUGAUGCAACACUGGAGCCGCUGGGAACUAAUUUGUAUGCGAAAGUAUAUUGAUUAGUUUUGGAGUACUCGUGGUCG
Outline: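 Library with all eight P1ex-region intron nucleotides randomised, intron inside the knt kanamycin-resistance gene on pET-22b(+), in E. coli BL21(DE3). Cells grew overnight at 37°C or 30°C on LB agar with or without 25 μg/mL kanamycin (plus 100 μg/mL carbenicillin, 50 μM IPTG, 0.2% rhamnose), in six replicate transformations. Pooled colonies were amplicon-sequenced on Illumina HiSeq 2500. DiMSum fitness is the error-weighted combination of wild-type-normalised replicate fold changes, kanamycin versus none.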

Sequence	self-splicing fitness (ln) (30 °C)	self-splicing fitness (ln) (37 °C)
UCACAGCAAUAUUACGUAGC	-2.87 ± 0.18	-1.34 ± 0.21
UCACAGCAAUAUUACGUAGU	-3.38 ± 0.12	-2.6 ± 0.17
UCACAGCAAUAUUACGUGAA	-2.36 ± 0.1	-1.4 ± 0.1
UCACAGCAAUAUUACGUUUA	-2.53 ± 0.13	-0.819 ± 0.082
UCAGAGCAAUAUUACGAGUU	-2.22 ± 0.2	-0.115 ± 0.27
UCAGAGCAAUAUUACGCAUU	-3.35 ± 0.43	-0.634 ± 0.19
UCAGAGCAAUAUUACGCCCU		-2.21 ± 0.39
UCAGAGCAAUAUUACGCGGU	-4.12 ± 0.33	-3.04 ± 0.32
UCAGAGCAAUAUUACGGACG	-3.67 ± 0.44	-1.58 ± 0.2
UCAGAGCAAUAUUACGGAUU	-3.58 ± 0.19	-2.68 ± 0.23
UCAGAGCAAUAUUACGGCCC	-2.13 ± 0.39	-0.0611 ± 0.34
UCAGAGCAAUAUUACGGCCU	-2.39 ± 0.34	-2.73 ± 0.31
UCAGAGCAAUAUUACGGGAA		-2.4 ± 0.2
UCAGAGCAAUAUUACGGUAA	-3.7 ± 0.47	-1.85 ± 0.41
UCAGAGCAAUAUUACGUACG	-1.96 ± 0.24	-1.96 ± 0.28
UCAGAGCAAUAUUACGUACU	-3.35 ± 0.34	-2.24 ± 0.3
UCAGAGCAAUAUUACGUCCA	-3.75 ± 0.47	-2.25 ± 0.39
UCAGAGCAAUAUUACGUCUG	-2.88 ± 0.12	-2.35 ± 0.14
UCAGAGCAAUAUUACGUGCU	-3.09 ± 0.2	-3.07 ± 0.28
UCAGAGCAAUAUUACGUGUC	-4.13 ± 0.31	-2.63 ± 0.23
UCAGAGCAAUAUUACGUUCU	-3.86 ± 0.22	-2.47 ± 0.25
UCAGAGCAAUAUUACGUUGG	-3.05 ± 0.21	-2.9 ± 0.35
UCAUAGCAAUAUUACGACCG	-1.36 ± 0.16	-0.325 ± 0.22
UCAUAGCAAUAUUACGAGUA	-3.06 ± 0.23	0.0724 ± 0.12
UCAUAGCAAUAUUACGCAGG	-3.24 ± 0.17	-3.01 ± 0.17

Sequence	self-splicing fitness (ln) (30 °C)	self-splicing fitness (ln) (37 °C)
UCAUAGCAAUAUUACGCGCC	-3.62 ± 0.44	-1.88 ± 0.33
UCAUAGCAAUAUUACGGAAU	-3.32 ± 0.33	-3.09 ± 0.47
UCAUAGCAAUAUUACGGCCU	-3.03 ± 0.17	-2.48 ± 0.31
UCAUAGCAAUAUUACGGCGU	-3.73 ± 0.14	-3.17 ± 0.19
UCAUAGCAAUAUUACGGCUG	-1.33 ± 0.11	-1.12 ± 0.14
UCAUAGCAAUAUUACGGCUU		-1.48 ± 0.26
UCAUAGCAAUAUUACGGGAU	-3.11 ± 0.18	-2.87 ± 0.28
UCAUAGCAAUAUUACGGGCA	-1.29 ± 0.11	-0.42 ± 0.1
UCAUAGCAAUAUUACGGUUU	-3.72 ± 0.28	-1.92 ± 0.22
UCAUAGCAAUAUUACGUACA	-2.15 ± 0.14	-1.46 ± 0.12
UCCAAGCAAUAUUACGAACG	-2.64 ± 0.15	-1.62 ± 0.23
UCCAAGCAAUAUUACGACCU	-2.9 ± 0.26	-1.95 ± 0.26
UCCAAGCAAUAUUACGACGG	-0.354 ± 0.076	0.164 ± 0.1
UCCAAGCAAUAUUACGAGUA	-0.957 ± 0.099	-0.576 ± 0.084
UCCAAGCAAUAUUACGAUUC	-2.6 ± 0.37	-2.18 ± 0.34
UCCAAGCAAUAUUACGCACA	-0.502 ± 0.092	-0.309 ± 0.099
UCCAAGCAAUAUUACGCGUG	-4.16 ± 0.21	-2.53 ± 0.2
UCCAAGCAAUAUUACGCUAA	-2.62 ± 0.14	-1.36 ± 0.13
UCCAAGCAAUAUUACGCUAU	-3.98 ± 0.47	-2.26 ± 0.23
UCCAAGCAAUAUUACGGAAA	-2.19 ± 0.2	-1.51 ± 0.23
UCCAAGCAAUAUUACGGAUC	-3.49 ± 0.15	-2.9 ± 0.16
UCCAAGCAAUAUUACGGGAC	-3.59 ± 0.25	-1.24 ± 0.21
UCCAAGCAAUAUUACGGGUC	-3.16 ± 0.13	-2.17 ± 0.14
UCCAAGCAAUAUUACGGUAU	-2.72 ± 0.14	-2.02 ± 0.12
UCCAAGCAAUAUUACGGUGC	-3.58 ± 0.14	-2.44 ± 0.12

Sequence	self-splicing fitness (ln) (30 °C)	self-splicing fitness (ln) (37 °C)
UCCAAGCAAUAUUACGGUGG	-2.08 ± 0.079	-0.995 ± 0.096
UCCAAGCAAUAUUACGUAGA	-0.92 ± 0.06	0.437 ± 0.092
UCCAAGCAAUAUUACGUAUG	-4.08 ± 0.19	-2.36 ± 0.2
UCCAAGCAAUAUUACGUCAA	-2.68 ± 0.19	-0.871 ± 0.1
UCCAAGCAAUAUUACGUUGA	-0.725 ± 0.061	-0.109 ± 0.073
UCCCAGCAAUAUUACGAAAU	-3.28 ± 0.16	-1.76 ± 0.2
UCCCAGCAAUAUUACGAAGU	-2.04 ± 0.1	-1.14 ± 0.11
UCCCAGCAAUAUUACGACGA	-0.00629 ± 0.056	0.0828 ± 0.065
UCCCAGCAAUAUUACGAGAA	-1.87 ± 0.18	-0.452 ± 0.13
UCCCAGCAAUAUUACGAGCG	-3.32 ± 0.33	-2.02 ± 0.26
UCCCAGCAAUAUUACGAGGU	-1.76 ± 0.071	-0.885 ± 0.073
UCCCAGCAAUAUUACGCAAU	-2.69 ± 0.11	-2.16 ± 0.13
UCCCAGCAAUAUUACGCAGC	-3.71 ± 0.29	-3.19 ± 0.47
UCCCAGCAAUAUUACGCAGU	-1.21 ± 0.075	-0.7 ± 0.1
UCCCAGCAAUAUUACGCAUC	-4.39 ± 0.42	-1.85 ± 0.22
UCCCAGCAAUAUUACGCCAG	-2.08 ± 0.23	-2.27 ± 0.49
UCCCAGCAAUAUUACGCCGA	-0.426 ± 0.1	0.659 ± 0.13
UCCCAGCAAUAUUACGCGGU	-3.01 ± 0.13	-0.898 ± 0.087
UCCCAGCAAUAUUACGCGUC	-3.15 ± 0.19	-1.47 ± 0.18
UCCCAGCAAUAUUACGCUCU	-2.77 ± 0.16	-1.7 ± 0.17
UCCCAGCAAUAUUACGCUUA	-2.26 ± 0.14	-0.458 ± 0.11
UCCCAGCAAUAUUACGGAGC	-1.44 ± 0.098	-1.44 ± 0.18
UCCCAGCAAUAUUACGGUGU	-0.353 ± 0.043	0.504 ± 0.055
UCCCAGCAAUAUUACGGUUA	-0.244 ± 0.071	0.0867 ± 0.077
UCCCAGCAAUAUUACGUAAU	-2.01 ± 0.068	-0.749 ± 0.085

Sequence	self-splicing fitness (ln) (30 °C)	self-splicing fitness (ln) (37 °C)
UCCCAGCAAUAUUACGUACG	-3.27 ± 0.2	-2.93 ± 0.3
UCCCAGCAAUAUUACGUAUG	-3.3 ± 0.16	-2.2 ± 0.16
UCCCAGCAAUAUUACGUCCA	-1.51 ± 0.12	-0.587 ± 0.12
UCCCAGCAAUAUUACGUGUC	-2.9 ± 0.15	-2.44 ± 0.16
UCCCAGCAAUAUUACGUGUU	-3.33 ± 0.12	-2.19 ± 0.11
UCCCAGCAAUAUUACGUUGA	-1.26 ± 0.066	0.408 ± 0.075
UCCGAGCAAUAUUACGAAAA		-1.07 ± 0.37
UCCGAGCAAUAUUACGAACA	-3.11 ± 0.47	
UCCGAGCAAUAUUACGAAGG	-2.07 ± 0.11	-1.43 ± 0.13
UCCGAGCAAUAUUACGACGC		-1.61 ± 0.42
UCCGAGCAAUAUUACGACGU	-1.05 ± 0.07	0.0752 ± 0.11
UCCGAGCAAUAUUACGAGAG	-2.57 ± 0.16	-2.91 ± 0.21
UCCGAGCAAUAUUACGAGUG	-2.41 ± 0.09	-1.34 ± 0.094
UCCGAGCAAUAUUACGAUCG	-3.27 ± 0.27	-2.51 ± 0.34
UCCGAGCAAUAUUACGAUGU	-3 ± 0.22	-1.87 ± 0.17
UCCGAGCAAUAUUACGCACU	-2.93 ± 0.25	-1.99 ± 0.22
UCCGAGCAAUAUUACGCCAG	-3.95 ± 0.28	-2.24 ± 0.31
UCCGAGCAAUAUUACGCUAC	-2.97 ± 0.38	
UCCGAGCAAUAUUACGCUAU	-2.09 ± 0.24	-3.2 ± 0.33
UCCGAGCAAUAUUACGCUCC	-1.58 ± 0.41	
UCCGAGCAAUAUUACGCUGA	-2.04 ± 0.12	-1.97 ± 0.14
UCCGAGCAAUAUUACGCUUG	-3.49 ± 0.28	-2.09 ± 0.25
